# Patent US20210130436A1 (published 2021)
# T1: TIGIT (Homo sapiens (Human), UniProt Q495A1 22-244)
# T1 sequence: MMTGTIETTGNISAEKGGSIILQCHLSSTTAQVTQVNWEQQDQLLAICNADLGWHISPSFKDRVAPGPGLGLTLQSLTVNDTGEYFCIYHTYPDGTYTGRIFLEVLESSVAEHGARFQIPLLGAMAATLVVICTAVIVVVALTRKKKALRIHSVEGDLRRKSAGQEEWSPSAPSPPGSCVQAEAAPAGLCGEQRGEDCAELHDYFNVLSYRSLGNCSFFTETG
# T2: CD96 (UniProt P40200 22-585, limits assumed)
# T2 construct: whole, on cells
# T2 sequence (looked up): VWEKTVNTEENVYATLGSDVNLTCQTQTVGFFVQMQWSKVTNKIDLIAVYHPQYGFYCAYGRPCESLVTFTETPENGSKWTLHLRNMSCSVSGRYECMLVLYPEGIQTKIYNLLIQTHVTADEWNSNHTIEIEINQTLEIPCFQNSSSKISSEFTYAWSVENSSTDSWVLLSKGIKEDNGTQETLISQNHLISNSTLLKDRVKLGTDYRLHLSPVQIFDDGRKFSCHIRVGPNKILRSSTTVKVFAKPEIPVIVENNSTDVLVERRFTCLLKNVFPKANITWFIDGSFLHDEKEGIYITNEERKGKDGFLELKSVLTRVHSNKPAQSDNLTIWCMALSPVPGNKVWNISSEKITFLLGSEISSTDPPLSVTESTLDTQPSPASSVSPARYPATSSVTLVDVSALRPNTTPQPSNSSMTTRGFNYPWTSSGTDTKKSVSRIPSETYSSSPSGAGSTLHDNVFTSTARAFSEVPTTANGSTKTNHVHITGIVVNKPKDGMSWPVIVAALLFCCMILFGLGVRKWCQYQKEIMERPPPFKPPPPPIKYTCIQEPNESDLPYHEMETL
# T3: CD226 (Homo sapiens (Human), UniProt Q15762 19-336)
# T3 sequence: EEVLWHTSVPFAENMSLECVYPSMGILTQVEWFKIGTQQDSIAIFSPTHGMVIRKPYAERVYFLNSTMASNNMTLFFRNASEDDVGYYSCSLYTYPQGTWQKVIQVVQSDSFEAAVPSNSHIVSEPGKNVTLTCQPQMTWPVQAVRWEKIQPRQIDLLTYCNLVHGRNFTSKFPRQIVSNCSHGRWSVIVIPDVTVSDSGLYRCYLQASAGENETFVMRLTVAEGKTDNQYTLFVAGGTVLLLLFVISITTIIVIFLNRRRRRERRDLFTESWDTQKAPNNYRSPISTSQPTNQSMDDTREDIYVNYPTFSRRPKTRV
# B1: variant CD80 IgV-Fc E35D/L97R (Fc fusion, not shown: a dimerising Fc or GST)
# chain: VIHVTKEVKEVATLSCGHNVSVEELAQTRIYWQKDKKMVLTMMSGDMNIWPEYKNRTIFDITNNLSIVILALRPSDEGTYECVVLKYEKDAFKREHRAEVTLSVKAD
# B2: variant CD80 IgV-Fc Q33L/E35D/M47V/T79A (Fc fusion, not shown: a dimerising Fc or GST)
# chain: VIHVTKEVKEVATLSCGHNVSVEELAQTRIYWLKDKKMVLTMMSGDVNIWPEYKNRTIFDITNNLSIVILALRPSDEGAYECVVLKYEKDAFKREHLAEVTLSVKAD
# B3: variant CD80 IgV-Fc E24D/Q33L/E35D/M47V/K54R/L85Q (Fc fusion, not shown: a dimerising Fc or GST)
# chain: VIHVTKEVKEVATLSCGHNVSVEDLAQTRIYWLKDKKMVLTMMSGDVNIWPEYRNRTIFDITNNLSIVILALRPSDEGTYECVVQKYEKDAFKREHLAEVTLSVKAD
# B4: variant CD80 IgV-Fc E35D/M47V/N48K/L85M (Fc fusion, not shown: a dimerising Fc or GST)
# chain: VIHVTKEVKEVATLSCGHNVSVEELAQTRIYWQKDKKMVLTMMSGDVKIWPEYKNRTIFDITNNLSIVILALRPSDEGTYECVVMKYEKDAFKREHLAEVTLSVKAD
# B5: variant CD80 IgV-Fc Q33L/E35D/M47V (Fc fusion, not shown: a dimerising Fc or GST)
# chain: VIHVTKEVKEVATLSCGHNVSVEELAQTRIYWLKDKKMVLTMMSGDVNIWPEYKNRTIFDITNNLSIVILALRPSDEGTYECVVLKYEKDAFKREHLAEVTLSVKAD
# B6: variant CD80 IgV-Fc E35D/N48K/L72V (Fc fusion, not shown: a dimerising Fc or GST)
# chain: VIHVTKEVKEVATLSCGHNVSVEELAQTRIYWQKDKKMVLTMMSGDMKIWPEYKNRTIFDITNNLSIVILAVRPSDEGTYECVVLKYEKDAFKREHLAEVTLSVKAD
# B7: variant CD80 IgV-Fc H18Y/E35D/M47V/N48K (Fc fusion, not shown: a dimerising Fc or GST)
# chain: VIHVTKEVKEVATLSCGYNVSVEELAQTRIYWQKDKKMVLTMMSGDVKIWPEYKNRTIFDITNNLSIVILALRPSDEGTYECVVLKYEKDAFKREHLAEVTLSVKAD
# B8: variant CD80 IgV-Fc A26E/E35D/M43I/M47L/L85Q/K86E/R94W (Fc fusion, not shown: a dimerising Fc or GST)
# chain: VIHVTKEVKEVATLSCGHNVSVEELEQTRIYWQKDKKMVLTMISGDLNIWPEYKNRTIFDITNNLSIVILALRPSDEGTYECVVQEYEKDAFKWEHLAEVTLSVKAD
# B9: WT CD80 ECD-Fc (Fc fusion, not shown: a dimerising Fc or GST)
# chain: VIHVTKEVKEVATLSCGHNVSVEELAQTRIYWQKEKKMVLTMMSGDMNIWPEYKNRTIFDITNNLSIVILALRPSDEGTYECVVLKYEKDAFKREHLAEVTLSVKADFPTPSISDFEIPTSNIRRIICSTSGGFPEPHLSWLENGEELNAINTTVSQDPETELYAVSSKLDFNMTTNHSFMCLIKYGHLRVNQTFNWNTTKQEHFPDN
# notes: Wild-type control
# B10: variant CD155 IgV-Fc S52E (Fc fusion, not shown: a dimerising Fc or GST)
# chain: WPPPGTGDVVVQAPTQVPGFLGDSVTLPCYLQVPNMEVTHVSQLTWARHGEEGSMAVFHQTQGPSYSESKRLEFVAARLGAELRNASLRMFGLRVEDEGNYTCLFVTFPQGSRSVDIWLRVL
# B11: variant CD155 IgV-Fc S52M (Fc fusion, not shown: a dimerising Fc or GST)
# chain: WPPPGTGDVVVQAPTQVPGFLGDSVTLPCYLQVPNMEVTHVSQLTWARHGEMGSMAVFHQTQGPSYSESKRLEFVAARLGAELRNASLRMFGLRVEDEGNYTCLFVTFPQGSRSVDIWLRVL
# B12: variant CD155 IgV-Fc S52W (Fc fusion, not shown: a dimerising Fc or GST)
# chain: WPPPGTGDVVVQAPTQVPGFLGDSVTLPCYLQVPNMEVTHVSQLTWARHGEWGSMAVFHQTQGPSYSESKRLEFVAARLGAELRNASLRMFGLRVEDEGNYTCLFVTFPQGSRSVDIWLRVL
# B13: variant CD155 IgV-Fc S52M/L104Q (Fc fusion, not shown: a dimerising Fc or GST)
# chain: WPPPGTGDVVVQAPTQVPGFLGDSVTLPCYLQVPNMEVTHVSQLTWARHGEMGSMAVFHQTQGPSYSESKRLEFVAARLGAELRNASLRMFGLRVEDEGNYTCQFVTFPQGSRSVDIWLRVL
# B14: variant CD155 IgV-Fc T45Q/S52L/L104E/G111R (Fc fusion, not shown: a dimerising Fc or GST)
# chain: WPPPGTGDVVVQAPTQVPGFLGDSVTLPCYLQVPNMEVTHVSQLQWARHGELGSMAVFHQTQGPSYSESKRLEFVAARLGAELRNASLRMFGLRVEDEGNYTCEFVTFPQRSRSVDIWLRVL
# B15: variant CD155 IgV-Fc S52R/Q62F/L104Q/G111R (Fc fusion, not shown: a dimerising Fc or GST)
# chain: WPPPGTGDVVVQAPTQVPGFLGDSVTLPCYLQVPNMEVTHVSQLTWARHGERGSMAVFHQTFGPSYSESKRLEFVAARLGAELRNASLRMFGLRVEDEGNYTCQFVTFPQRSRSVDIWLRVL
# B16: variant CD155 IgV-Fc S52Q (Fc fusion, not shown: a dimerising Fc or GST)
# chain: WPPPGTGDVVVQAPTQVPGFLGDSVTLPCYLQVPNMEVTHVSQLTWARHGEQGSMAVFHQTQGPSYSESKRLEFVAARLGAELRNASLRMFGLRVEDEGNYTCLFVTFPQGSRSVDIWLRVL
# B17: variant CD155 IgV-Fc S52W/L104E (Fc fusion, not shown: a dimerising Fc or GST)
# chain: WPPPGTGDVVVQAPTQVPGFLGDSVTLPCYLQVPNMEVTHVSQLTWARHGEWGSMAVFHQTQGPSYSESKRLEFVAARLGAELRNASLRMFGLRVEDEGNYTCEFVTFPQGSRSVDIWLRVL
# B18: variant CD155 IgV-Fc T45Q/S52L/V57L/L104E (Fc fusion, not shown: a dimerising Fc or GST)
# chain: WPPPGTGDVVVQAPTQVPGFLGDSVTLPCYLQVPNMEVTHVSQLQWARHGELGSMALFHQTQGPSYSESKRLEFVAARLGAELRNASLRMFGLRVEDEGNYTCEFVTFPQGSRSVDIWLRVL
# B19: variant CD155 IgV-Fc S52M/Q62Y (Fc fusion, not shown: a dimerising Fc or GST)
# chain: WPPPGTGDVVVQAPTQVPGFLGDSVTLPCYLQVPNMEVTHVSQLTWARHGEMGSMAVFHQTYGPSYSESKRLEFVAARLGAELRNASLRMFGLRVEDEGNYTCLFVTFPQGSRSVDIWLRVL
# Key:
# [1] = target: T4, human PD-L1 on CHO cells (human, UniProt Q9NZQ7 19-290); assay: flow cytometry, CHO cells stably expressing PD-L1
# T4 construct: whole, on cells; CHO cells stably expressing PD-L1; also called huPD-L1
# [2] = target: T5, CD28 on Jurkat/IL2 reporter cells (human, UniProt P10747 19-220); assay: flow cytometry, Jurkat cells (CD28)
# T5 construct: whole, on cells; Endogenous CD28 of Jurkat cells; also called Jurkats (CD28)
# [3] = target: T6, human CTLA4 (full-length, expressed on CHO cells) (human, UniProt P16410 36-223); assay: flow cytometry, CHO cells expressing huCTLA4, PE anti-human Fc
# T6 construct: also called huCTLA4
# [4] = target: T7, human PD-L1 (full-length, expressed on CHO cells) (human, UniProt Q9NZQ7 19-290); assay: flow cytometry, CHO cells expressing huPD-L1, PE anti-human Fc
# T7 construct: also called huPD-L1; CD274
# [5] = target: T8, CD28 (endogenously expressed on Jurkat/IL2 reporter cells) (human, UniProt P10747 19-220); assay: flow cytometry, Jurkat/IL2 reporter cells (endogenous CD28), PE anti-human Fc
# T8 construct: Endogenous CD28 of Jurkat cells; also called human CD28
# [6] = target: human CD28 (human, UniProt P10747 19-220); assay: flow cytometry, Jurkat cells (CD28)
# [7] = target: T1, TIGIT; assay: flow cytometry, Fc fusion at 100 nM, TIGIT-transfected cells
# [8] = target: T2, CD96; assay: flow cytometry, Fc fusion at 100 nM, CD96-transfected cells
# [9] = target: T3, CD226; assay: flow cytometry, Fc fusion at 100 nM, CD226-transfected cells
# T7 sequence (Q9NZQ7 19-290): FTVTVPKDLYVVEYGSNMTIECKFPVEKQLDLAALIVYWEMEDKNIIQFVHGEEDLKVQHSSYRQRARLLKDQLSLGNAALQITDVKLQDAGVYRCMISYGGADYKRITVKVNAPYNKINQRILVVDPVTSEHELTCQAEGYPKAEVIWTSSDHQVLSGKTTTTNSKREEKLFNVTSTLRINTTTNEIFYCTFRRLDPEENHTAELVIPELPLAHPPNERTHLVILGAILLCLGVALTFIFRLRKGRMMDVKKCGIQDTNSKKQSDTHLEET
# T4 sequence (Q9NZQ7 19-290): as above
# T6 sequence (P16410 36-223): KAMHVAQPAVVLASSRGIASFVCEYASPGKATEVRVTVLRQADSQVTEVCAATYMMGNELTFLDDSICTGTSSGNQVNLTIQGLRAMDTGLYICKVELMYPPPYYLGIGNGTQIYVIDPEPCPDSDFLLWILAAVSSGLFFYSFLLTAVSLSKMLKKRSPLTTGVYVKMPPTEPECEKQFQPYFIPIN
Binder,MFI at 100 nM [7] [MFI],MFI at 100 nM [8] [MFI],MFI at 100 nM [9] [MFI],further results
B1,–,–,–,MFI at 33.3 nM [1]: 2610 MFI; MFI at 33.3 nM [2]: 44.6 MFI
B2,–,–,–,MFI at 33.3 nM [3]: 28900 MFI; MFI at 33.3 nM [4]: 62100 MFI
B3,–,–,–,MFI at 33.3 nM [3]: 311000 MFI; MFI at 33.3 nM [4]: 67100 MFI
B4,–,–,–,MFI at 33.3 nM [1]: 5660 MFI; MFI at 33.3 nM [2]: 413 MFI
B5,–,–,–,MFI at 33.3 nM [3]: 47600 MFI; MFI at 33.3 nM [4]: 47900 MFI
B6,–,–,–,MFI at 33.3 nM [1]: 3030 MFI; MFI at 33.3 nM [2]: 582 MFI
B7,–,–,–,MFI at 33.3 nM [1]: 6460 MFI; MFI at 33.3 nM [2]: 841 MFI
B8,–,–,–,MFI at 33.3 nM [3]: 2950 MFI; MFI at 33.3 nM [5]: 314 MFI
B9,–,–,–,MFI at 33.3 nM [6]: 31 MFI
B10,2660,1800,2600,–
B11,1870,1610,1900,–
B12,1990,1710,2040,–
B13,2670,1630,2250,–
B14,2290,1580,2390,–
B15,2970,2360,3170,–
B16,2290,1820,2020,–
B17,1940,1630,1910,–
B18,2860,1530,5940,–
B19,1930,1650,2000,–
